Measured values as given in publication PMC6755812.

Legend:
[1] = target: bovine pancreas insulin (bovine)
[2] = target: Escherichia coli peptide methionine sulfoxide reductase A (E. coli) (UniProt P0A744)
[3] = target: Escherichia coli thioredoxin reductase (E. coli) (UniProt P0A9P4)
Chain of Escherichia coli thioredoxin reductase (E. coli) (P0A9P4 2-321): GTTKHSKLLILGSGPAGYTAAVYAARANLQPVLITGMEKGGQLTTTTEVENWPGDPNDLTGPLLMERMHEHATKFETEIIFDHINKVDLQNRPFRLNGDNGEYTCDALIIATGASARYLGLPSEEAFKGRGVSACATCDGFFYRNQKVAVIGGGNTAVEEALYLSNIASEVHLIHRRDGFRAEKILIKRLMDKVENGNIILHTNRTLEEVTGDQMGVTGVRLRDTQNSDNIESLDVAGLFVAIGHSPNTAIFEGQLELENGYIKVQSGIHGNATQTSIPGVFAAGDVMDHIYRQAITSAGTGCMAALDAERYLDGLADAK

Chain of Escherichia coli peptide methionine sulfoxide reductase A (E. coli) (P0A744 2-212): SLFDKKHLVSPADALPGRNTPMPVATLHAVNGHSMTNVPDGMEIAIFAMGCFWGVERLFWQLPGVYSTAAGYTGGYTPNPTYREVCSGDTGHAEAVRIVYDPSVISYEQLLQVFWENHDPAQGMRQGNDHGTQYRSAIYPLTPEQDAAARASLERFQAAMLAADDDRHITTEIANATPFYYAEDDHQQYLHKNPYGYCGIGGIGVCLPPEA
Chain of bovine pancreas insulin (bovine) (P01317 25-54, chain 1 of 2): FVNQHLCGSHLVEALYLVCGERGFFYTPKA
Chain of bovine pancreas insulin (bovine) (P01317 85-105, chain 2 of 2): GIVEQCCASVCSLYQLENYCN

- Specific insulin reductase activity (0.13 mM insulin, 1 mM DTT, 0.5-2.0 μM Trx, onset of aggregation at OD650, pH 7.0, 25 °C) [1]: 0.155 min^−1 μM^−1
- k1: rate constant of Trx–MsrA mixed disulfide formation (stopped-flow fluorescence, 1 μM oxidized MsrA, 5-100 μM reduced Trx, pH 7.0, 25 °C) [2]: 221000 M^−1 s^−1
- k2: rate constant of mixed disulfide dissociation to reduced MsrA and oxidized Trx (stopped-flow fluorescence, pH 7.0, 25 °C) [2]: 3.63 s^−1
- Catalytic activity of S-MetO reduction by NADPH (Vi/[Trx]) in the reconstituted NADPH/TrxR/Trx/MsrA chain (4.5 μM TrxR, 4.5 μM MsrA, 0.1-1.0 μM Trx, pH 7.0, 25 °C) [3]: 0.22 min^−1
B1: human thioredoxin (enzyme)
chain: MVKQIESKTAFQEALDAAGDKLVVVDFSATWCGPCKMIKPFFHSLSEKYSNVIFLEVDVDDCQDVASECEVKCMPTFQFFKKGQKVGEFSGANKEKLEATINELV
